Patent US12295987B2, “Method of using a GIP/GLP1 co-agonist for diabetes” (Eli Lilly and Company, priority 2018, dated 2025)

These substances were tested against T1, human gastric inhibitory peptide receptor (hGIPR) (Homo sapiens, UniProt P48546) (assay: cAMP pharmacological functional assay in presence of 0.1% casein, hGIPR). Details: ratio of hGIPR to hGLP1R cAMP EC50 ratios.
T1 construct: expressed in transfected cells; host or cells: HEK293
T1 sequence (P48546 22-466): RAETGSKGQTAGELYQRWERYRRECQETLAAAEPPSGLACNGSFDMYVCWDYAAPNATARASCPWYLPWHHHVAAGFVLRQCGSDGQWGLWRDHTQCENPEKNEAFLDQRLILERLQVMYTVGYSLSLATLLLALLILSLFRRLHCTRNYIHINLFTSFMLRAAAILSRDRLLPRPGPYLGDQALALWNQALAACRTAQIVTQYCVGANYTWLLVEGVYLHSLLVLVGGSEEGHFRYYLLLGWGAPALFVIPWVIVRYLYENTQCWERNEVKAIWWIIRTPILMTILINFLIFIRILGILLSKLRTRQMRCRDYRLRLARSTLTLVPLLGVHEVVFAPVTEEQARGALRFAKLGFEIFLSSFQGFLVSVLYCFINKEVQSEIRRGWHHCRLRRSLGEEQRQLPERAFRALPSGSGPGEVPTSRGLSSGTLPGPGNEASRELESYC
Format: cell-based
Description: Each receptor over-expressing cell line (20 μl) is treated with the test peptide in DMEM (Gibco Cat #31053) supplemented with 0.1% Casein (Sigma Cat #C4765), 250 μM IBMX, 1× GlutaMAX™ (Gibco Cat #35050), and 20 mM HEPES (HyClone Cat #SH30237.01) in a 20 μl assay volume. […] EC50 is the concentration of compound causing half-maximal simulation in a dose response curve. A relative EC50 value is derived by non-linear regression analysis using the percent maximal response vs. the concentration of peptide added, fitted to a four-parameter logistic equation.
Intracellular cAMP levels are determined by extrapolation using a standard curve. Dose response curves of compounds are plotted as the percentage of stimulation normalized to minimum (buffer only) and maximum (maximum concentration of each control ligand) values and analyzed using a four parameter non-linear regression fit with a variable slope (Genedata Screener 13). EC50 is the concentration of compound causing half-maximal simulation in a dose response curve.
EC50 is the concentration of compound causing half-maximal simulation in a dose response curve.

Substance	[hGIPR/hGLP1R] EC50 Ratio
Y-Aib-Aad-GTFTSDYSILLDKK((2-[2-(2-Amino-ethoxy)-ethoxy]-acetyl)2-(γGlu)-CO—(CH2)18—CO2H)AQ-Aib-AFIEYLIEGGPSSGAPPPS-NH2 (YXXGTFTSDYSILLDKKAQXAFIEYLIEGGPSSGAPPPS; Aib, Aad, lipidated Lys, C-terminal amide; (2)..(2) Xaa at position 2 is Aib; (3)..(3) Xaa at position 3 is Aad; MOD_RES (17)..(17) Lys at position 17 is chemically modified by conjugation of the epsilon-amino group of the Lys side chain with (2-[2-(2-amino-ethoxy)-ethoxy]-acetyl)2-(gamma-Glu)-CO-(CH2)18- CO2H; (20)..(20) Xaa at position 20 is Aib; MOD_RES (39)..(39) Ser at position 39 is amidated) [Peptide 89]	8.97
Y-Aib-EGT-αMeF(2F)-TSD-3Pal-SI-αMeL-LDEK((2-[2-(2-Amino-ethoxy)-ethoxy]-acetyl)2-(γGlu)-CO—(CH2)18—CO2H)AQ-Aib-EFIEYLIEGGPSSGAPPPS-NH2 (YXEGTXTSDXSIXLDEKAQXEFIEYLIEGGPSSGAPPPS; Aib, αMeF(2F), 3Pal, αMeL; lipidated K; C-terminal amide; (2)..(2) Xaa at position 2 is Aib; (6)..(6) Xaa at position 6 is alpha-methyl-Phe(2F); (10)..(10) Xaa at position 10 is 3Pal; (13)..(13) Xaa at position 13 is alpha-methyl-Leu; MOD_RES (17)..(17) Lys at position 17 is chemically modified by conjugation of the epsilon-amino group of the Lys side chain with (2-[2-(2-amino-ethoxy)-ethoxy]-acetyl)2-(gamma-Glu)-CO-(CH2)18- CO2H; (20)..(20) Xaa at posit) [Peptide 157]	2.52
Y-Aib-EGT-αMeF(2F)-TSD-4Pal-SI-αMeL-LD-Dab-K((2-[2-(2-Amino-ethoxy)-ethoxy]-acetyl)2-(γGlu)-CO—(CH2)16—CO2H)AQ-Aib-EFI-(D-Glu)-YLIEGGPSSGAPPPS-NH2 (YXEGTXTSDXSIXLDXKAQXEFIXYLIEGGPSSGAPPPS; Aib, 4Pal, Dab, lipidated Lys, D-Glu, C-terminal amide; (2)..(2) Xaa at position 2 is Aib; (6)..(6) Xaa at position 6 is alpha-methyl-Phe(2F); (10)..(10) Xaa at position 10 is 4Pal; (13)..(13) Xaa at position 13 is alpha-methyl-Leu; (16)..(16) Xaa at position 16 is Dab; MOD_RES (17)..(17) Lys at position 17 is chemically modified by conjugation of the epsilon-amino group of the Lys side chain with (2-[2-(2-amino-ethoxy)-ethoxy]-acetyl)2-(gamma-Glu)-CO-) [Peptide 233]	9.25
Y-Aib-EGT-αMeF(2F)-TSD-4Pal-SI-αMeL-LD-Orn-K((2-[2-(2-Amino-ethoxy)-ethoxy]-acetyl)2-(γGlu)-CO—(CH2)16—CO2H)AQ-Aib-EFI-(D-Glu)-αMeY-LIEGG-NH2 (YXEGTXTSDXSIXLDXKAQXEFIXXLIEGG; Aib, αMeF(2F), 4Pal, αMeL, Orn, αMeY, D-Glu; C18 diacid lipidation; amide; (2)..(2) Xaa at position 2 is Aib; (6)..(6) Xaa at position 6 is alpha-methyl-Phe(2F); (10)..(10) Xaa at position 10 is 4Pal; (13)..(13) Xaa at position 13 is alpha-methyl-Leu; (16)..(16) Xaa at position 13 is Orn; MOD_RES (17)..(17) Lys at position 17 is chemically modified by conjugation of the epsilon-amino group of the Lys side chain with (2-[2-(2-amino-ethoxy)-ethoxy]-acetyl)2-(gamma-Glu)-CO-) [Peptide 265]	2.99
Y-Aib-EGT-αMeF(2F)-TSD-4Pal-SI-αMeL-LD-Orn-K((2-[2-(2-Amino-ethoxy)-ethoxy]-acetyl)2-(γGlu)-CO—(CH2)16—CO2H)AQ-Aib-EFI-(D-Glu)-αMeY-LIEGGPSSG-NH2 (YXEGTXTSDXSIXLDXKAQXEFIXXLIEGGPSSG; Aib, αMeF(2F), 4Pal, αMeL, Orn, αMeY, D-Glu; C18 diacid lipidation; amide; (2)..(2) Xaa at position 2 is Aib; (6)..(6) Xaa at position 6 is alpha-methyl-Phe(2F); (10)..(10) Xaa at position 10 is 4Pal; (13)..(13) Xaa at position 13 is alpha-methyl-Leu; (16)..(16) Xaa at position 16 is Orn; MOD_RES (17)..(17) Lys at position 17 is chemically modified by conjugation of the epsilon-amino group of the Lys side chain with (2-[2-(2-amino-ethoxy)-ethoxy]-acetyl)2-(gamma-Glu)-CO-) [Peptide 264]	2.63
Y-Aib-EGT-αMeF(2F)-TSD-4Pal-SI-αMeL-LD-Orn-K((2-[2-(2-Amino-ethoxy)-ethoxy]-acetyl)2-(γGlu)-CO—(CH2)16—CO2H)AQ-Aib-EFI-(D-Glu)-αMeY-LIEGGPSSGAPPPS-NH2 (YXEGTXTSDXSIXLDXKAQXEFIXXLIEGGPSSGAPPPS; Aib, 4Pal, Orn, αMe residues, lipidated Lys, D-Glu, amide; (2)..(2) Xaa at position 2 is Aib; (6)..(6) Xaa at position 6 is alpha-MeF(2F); (10)..(10) Xaa at position 10 is 4Pal; (13)..(13) Xaa at position 13 is alpha-MeL; (16)..(16) Xaa at position 16 is Orn; MOD_RES (17)..(17) K at position 17 is chemically modified by conjugation of the epsilon-amino group of the K side chain with (2-[2-(2-amino-ethoxy)-ethoxy]-acetyl)2-(gamma-Glu)-CO-(CH2)16- CO2H; (20) [Peptide 4]	4.22
Y-Aib-EGT-αMeF(2F)-TSD-4Pal-SI-αMeL-LD-Orn-K((2-[2-(2-Amino-ethoxy)-ethoxy]-acetyl)2-(γGlu)-CO—(CH2)16—CO2H)AQ-Aib-TFI-(D-Glu)-αMeY-LIEGGPSSGAPPPS-NH2 (YXEGTXTSDXSIXLDXKAQXTFIXXLIEGGPSSGAPPPS; Aib, 4Pal, Orn, αMe residues, lipidated Lys, D-Glu, amide; (2)..(2) Xaa at position 2 is Aib; (6)..(6) Xaa at position 6 is alpha-methyl-Phe(2F); (10)..(10) Xaa at position 10 is 4Pal; (13)..(13) Xaa at position 13 is alpha-methyl-Leu; (16)..(16) Xaa at position 16 is Orn; MOD_RES (17)..(17) Lys at position 17 is chemically modified by conjugation of the epsilon-amino group of the Lys side chain with (2-[2-(2-amino-ethoxy)-ethoxy]-acetyl)2-(gamma-Glu)-CO-) [Peptide 239]	5.34
